Results: the supplement of paper PMC7877785
± gives the uncertainty stated by the source.

Experiment: self-splicing fitness, log relative to wild type (ln ratio); higher = more splicing; Tetrahymena group I intron in knt gene, E. coli kanamycin selection, DiMSum; sequences stand for … in CUCUCU…GGAGGGAAAAGUUAUCAGGCAUGCACCUGGUAGCUAGUCUUUAAACCAAUAGAUUGCAUCGGUUUAAAAGGCAAGACCGUCAAAUUGCGGGAAAGGGGUCAACAGCCGUUCAGUACCAAGUCUCAGGGGAAACUUUGAGAUGGCCUUGCAAAGGGUAUGGUAAUAAGCUGACGGACAUGGUCCUAACCACGCAGCCAAGUCCUAAGUCAACAGAUCUUCUGUUGAUAUGGAUGCAGUUCACAGACUAAAUGUCGGUCGGGGAAGAUGUAUUCUUCUCAUAAGAUAUAGUCGGACCUCUCCUUAAUGGGAGCUAGCGGAUGAAGUGAUGCAACACUGGAGCCGCUGGGAACUAAUUUGUAUGCGAAAGUAUAUUGAUUAGUUUUGGAGUACUCGUGGUCG
Method in brief: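 Colonies from six replicate transformations of E. coli BL21(DE3) were pooled and amplicon-sequenced on an Illumina HiSeq 2500. The library placed an intron with all eight P1ex-region nucleotides randomised inside the knt kanamycin-resistance gene on pET-22b(+), and cells grew overnight at 37°C or 30°C on LB agar with or without 25 μg/mL kanamycin (plus 100 μg/mL carbenicillin, 50 μM IPTG, 0.2% rhamnose). Fitness is the DiMSum error-weighted combination of wild-type-normalised replicate fold changes, kanamycin versus none.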

Row | Sequence | self-splicing fitness (ln) (30 °C) | self-splicing fitness (ln) (37 °C)
1 | UAUUAGCAAUAUUACGAUAA | -1.07 ± 0.19 | 0.628 ± 0.16
2 | GACCAGCAAUAUUACGGUCA | -1.44 ± 0.099 | -0.935 ± 0.1
3 | CCGCAGCAAUAUUACGGAGG | -3.01 ± 0.16 | -1.81 ± 0.18
4 | AUUGAGCAAUAUUACGGGUU | -3.92 ± 0.25 | -3.31 ± 0.21
5 | AGCCAGCAAUAUUACGGGGG | -3.73 ± 0.24 | -1.99 ± 0.21
6 | CCCGAGCAAUAUUACGCCUA | -1.85 ± 0.25 | -2.94 ± 0.35
7 | UACAAGCAAUAUUACGUUCC | -3.65 ± 0.28 | -2.58 ± 0.25
8 | AGGUAGCAAUAUUACGAACA | -0.682 ± 0.019 | -0.342 ± 0.036
9 | UGAAAGCAAUAUUACGAAUU | -1.7 ± 0.26 | -1.66 ± 0.29
10 | GGCUAGCAAUAUUACGCUGC | -3.21 ± 0.19 | -2.65 ± 0.19
11 | CCACAGCAAUAUUACGUGAA | -2.7 ± 0.072 | -1.01 ± 0.082
12 | CACCAGCAAUAUUACGUACU | -3.08 ± 0.2 | -2.21 ± 0.2
13 | GUGCAGCAAUAUUACGAGUU | -2.49 ± 0.15 | -1.62 ± 0.15
14 | UCCAAGCAAUAUUACGUAUG | -4.08 ± 0.19 | -2.36 ± 0.2
15 | AAGCAGCAAUAUUACGUAGU | -2.61 ± 0.1 | -2.47 ± 0.14
16 | AGGCAGCAAUAUUACGUUUG | -3.43 ± 0.18 | -1.66 ± 0.14
17 | ACCCAGCAAUAUUACGCUAG | -2.81 ± 0.1 | -1.77 ± 0.12
18 | CUCAAGCAAUAUUACGCCUG | -4.22 ± 0.31 | -2.52 ± 0.24
19 | AGAUAGCAAUAUUACGCACG | -1.13 ± 0.14 | -0.355 ± 0.12
20 | AUCUAGCAAUAUUACGGAGG | -1.93 ± 0.14 | -1.96 ± 0.23
21 | GAAUAGCAAUAUUACGAGAG | -2.92 ± 0.2 | -3.05 ± 0.28
22 | ACUAAGCAAUAUUACGGCUA | -0.685 ± 0.085 | 0.0711 ± 0.11
23 | CCCCAGCAAUAUUACGGAGA | -2.32 ± 0.12 | -1.61 ± 0.15
24 | UGACAGCAAUAUUACGUUUC | -1.65 ± 0.29 | -1.5 ± 0.33
25 | CCAUAGCAAUAUUACGUACU | -4.18 ± 0.29 | -2.3 ± 0.18
26 | CGGCAGCAAUAUUACGUUUC | -3.29 ± 0.17 | -2.36 ± 0.19
27 | UGGCAGCAAUAUUACGUCCG | -0.782 ± 0.095 | -0.304 ± 0.13

Row | Sequence | self-splicing fitness (ln) (30 °C) | self-splicing fitness (ln) (37 °C)
28 | AAUUAGCAAUAUUACGACGG | -0.969 ± 0.14 | -0.972 ± 0.25
29 | UGGUAGCAAUAUUACGAAUC | -2.14 ± 0.32 | –
30 | GGCCAGCAAUAUUACGUUAC | -2.01 ± 0.12 | -0.532 ± 0.15
31 | UACUAGCAAUAUUACGAGGU | -3.47 ± 0.42 | -2 ± 0.29
32 | GCGGAGCAAUAUUACGAAGU | -3.58 ± 0.43 | -2.08 ± 0.36
33 | GCGAAGCAAUAUUACGUUGU | -3.58 ± 0.21 | -2.58 ± 0.18
34 | CGGUAGCAAUAUUACGUCAA | -1.08 ± 0.29 | –
35 | UACAAGCAAUAUUACGGAUU | -3.61 ± 0.15 | -0.762 ± 0.09
36 | UAACAGCAAUAUUACGCUAA | -1.93 ± 0.13 | -1.25 ± 0.12
37 | UCUCAGCAAUAUUACGCCGG | -2.33 ± 0.21 | –
38 | CUUGAGCAAUAUUACGAAGG | -1.97 ± 0.2 | –
39 | AAAUAGCAAUAUUACGCCGG | -1.6 ± 0.13 | -0.713 ± 0.15
40 | ACCAAGCAAUAUUACGCAGC | -1.83 ± 0.11 | -1.12 ± 0.13
41 | CCAAAGCAAUAUUACGAUAU | -4.16 ± 0.15 | -2.79 ± 0.13
42 | CUAUAGCAAUAUUACGAGGC | -3.06 ± 0.35 | –
43 | GUAGAGCAAUAUUACGAGAC | -3.02 ± 0.42 | –
44 | CUCUAGCAAUAUUACGGGAA | -2.54 ± 0.14 | -1.11 ± 0.11
45 | UAAGAGCAAUAUUACGCAAG | -3.12 ± 0.44 | -1.51 ± 0.45
46 | UAAAAGCAAUAUUACGAAAC | -2.8 ± 0.19 | -3.3 ± 0.43
47 | CCUGAGCAAUAUUACGGGCA | -2.93 ± 0.19 | -1.83 ± 0.17
48 | CGCGAGCAAUAUUACGCCAU | -3.53 ± 0.24 | -3.92 ± 0.42
49 | UGGCAGCAAUAUUACGUGAU | -1.46 ± 0.13 | -1.29 ± 0.17
50 | AGACAGCAAUAUUACGGUUG | -1.85 ± 0.088 | -1.87 ± 0.13
51 | CGACAGCAAUAUUACGCUAA | -2.16 ± 0.19 | -1.57 ± 0.18
52 | UUGGAGCAAUAUUACGCGUG | -3.03 ± 0.18 | -0.323 ± 0.087
53 | UCCCAGCAAUAUUACGCCGA | -0.426 ± 0.1 | 0.659 ± 0.13
54 | UUAUAGCAAUAUUACGUUAU | – | -2.31 ± 0.34

Row | Sequence | self-splicing fitness (ln) (30 °C) | self-splicing fitness (ln) (37 °C)
55 | GAUUAGCAAUAUUACGAUUU | -0.392 ± 0.12 | 0.757 ± 0.13
56 | GCUUAGCAAUAUUACGCGGG | -3.43 ± 0.22 | -2.82 ± 0.32
57 | GGCAAGCAAUAUUACGCCAA | -1.93 ± 0.24 | -1.36 ± 0.21
58 | GCGAAGCAAUAUUACGGAGA | -2.88 ± 0.26 | -2.87 ± 0.44
59 | GUCAAGCAAUAUUACGAGCC | -4.32 ± 0.25 | -2.26 ± 0.26
60 | AUUUAGCAAUAUUACGGAGU | -2.92 ± 0.27 | -2.29 ± 0.27
61 | UCACAGCAAUAUUACGAUAA | -1.65 ± 0.066 | -0.733 ± 0.074
62 | CGAAAGCAAUAUUACGGGGC | -4.34 ± 0.32 | -1.98 ± 0.19
63 | CCACAGCAAUAUUACGGGCU | -4.83 ± 0.27 | -3.07 ± 0.18
64 | AACGAGCAAUAUUACGGGGU | -3.26 ± 0.35 | –
65 | UCAUAGCAAUAUUACGACCG | -1.36 ± 0.16 | -0.325 ± 0.22
66 | GAACAGCAAUAUUACGUAUA | -0.835 ± 0.083 | -0.324 ± 0.1
67 | CCAAAGCAAUAUUACGCCGC | – | -2.58 ± 0.38
68 | AGCAAGCAAUAUUACGAACG | -0.526 ± 0.083 | -0.449 ± 0.1
69 | UGAGAGCAAUAUUACGUAGG | -2.48 ± 0.35 | -1.12 ± 0.41
70 | CACUAGCAAUAUUACGCGGU | -4.59 ± 0.26 | -3.62 ± 0.28
71 | GCACAGCAAUAUUACGCAGC | – | -1.85 ± 0.21
72 | CGACAGCAAUAUUACGGAAC | -3.4 ± 0.19 | -2.74 ± 0.23
73 | AAUAAGCAAUAUUACGUUUU | -1.78 ± 0.076 | -1.55 ± 0.12
74 | UUGGAGCAAUAUUACGUGGU | -2.84 ± 0.36 | -2.56 ± 0.32
75 | UUGUAGCAAUAUUACGAUGA | -0.47 ± 0.13 | 0.0216 ± 0.12
76 | CUUCAGCAAUAUUACGUGAU | -3.65 ± 0.12 | -2.55 ± 0.12
77 | AUAUAGCAAUAUUACGGGAG | -4.22 ± 0.39 | -1.59 ± 0.24
78 | GCCAAGCAAUAUUACGAGGA | -1.37 ± 0.1 | -0.561 ± 0.1
79 | CAGUAGCAAUAUUACGAGGC | -3.19 ± 0.17 | -2.94 ± 0.3
